Molecular target: GAr fused to the N-terminus of p53 (GAr-p53), nascent peptide on polysomes (Epstein-Barr virus | not stated)
Assay: proximity ligation; PLEA (PLA ELISA): polysomes of cycloheximide-treated H1299 lysates captured on 96-well plates with goat anti-RPL5, increasing amounts of polysomes; in vitro PLA with anti-p53 (rabbit) and anti-NACA (mouse)

nascent polypeptide-associated complex subunit alpha (NACA), endogenous in H1299 cells (from UniProt Q13765 1-215) (natural protein)
fold interaction (PLEA signal) against p53: 3 fold

Reference: paper PMC9508830
